Measured values as given in patent US20250250335A1 (SHENGHE CHINA BIOPHARMACEUTICAL, published 2025).
Where two headings read alike, the source gives them in different places. Each block holds one binder with its values, some of them ahead of it.

Key:
Human-CEACAM6 (AB)-His [1] = target: T1, Human-CEACAM6 (AB)-His (human, UniProt P40199 145-314); assay: ELISA on coated human CEACAM6 (AB), OD450
T1 construct: Made in house, purified on a nickel column
Protocol: (§1) The binding activity of the antibodies to human CEACAM5, human CEACAM6, and human CEACAM6 (AB) proteins was detected by ELISA. The plate coated with proteins was incubated at 4° C. overnight, and the 96-well ELISA plate blocked with 2% PBS-BSA was added with the antibody to be detected and incubated at 37° C. for 1 h. After washing 3 times with PBS containing 0.05% Tween, the absorbance value of each well was read at wavelength 450 nm with the gradient-diluted mouse-derived candidate antibody as the primary antibody and anti-mouse-IgG-FC-HRP as the secondary antibody, and the absorbance value of each well was read at wavelength 450 nm after the TMB color development.

[2] = target: T2, human CEACAM5-his (ACRO CE5-H5226) (human, UniProt P06731 35-685); assay: ELISA on coated human CEACAM5, OD450
T2 construct: Bought protein; not shown: His tag
T2 sequence (looked up): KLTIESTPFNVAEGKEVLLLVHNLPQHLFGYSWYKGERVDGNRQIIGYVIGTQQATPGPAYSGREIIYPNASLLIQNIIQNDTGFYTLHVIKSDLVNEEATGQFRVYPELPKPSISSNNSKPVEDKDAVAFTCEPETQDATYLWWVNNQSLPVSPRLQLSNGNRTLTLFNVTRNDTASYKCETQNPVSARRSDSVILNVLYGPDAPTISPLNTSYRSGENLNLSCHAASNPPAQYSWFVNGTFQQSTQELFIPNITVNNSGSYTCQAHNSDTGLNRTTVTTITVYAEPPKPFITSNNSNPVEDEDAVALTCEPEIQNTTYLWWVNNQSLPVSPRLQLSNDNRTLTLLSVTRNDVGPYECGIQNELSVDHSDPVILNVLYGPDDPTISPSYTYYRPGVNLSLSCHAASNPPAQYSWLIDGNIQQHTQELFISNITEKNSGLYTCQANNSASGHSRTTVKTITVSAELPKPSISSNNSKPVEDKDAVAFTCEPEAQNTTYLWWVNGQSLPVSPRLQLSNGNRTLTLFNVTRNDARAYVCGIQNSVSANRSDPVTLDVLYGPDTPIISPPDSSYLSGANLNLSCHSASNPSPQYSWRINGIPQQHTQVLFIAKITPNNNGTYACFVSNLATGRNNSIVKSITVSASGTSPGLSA
Protocol: as §1

Human-CEACAM6 (AB)-His [3] = target: T1, Human-CEACAM6 (AB)-His; assay: SPR (Biacore), antibody captured on CM5 chip, antigen as analyte, 1:1 model
Protocol: (§2) The CM5 sensor chip was activated at a flow rate of 10 μL/min for 420 seconds. The channel was then injected with 30 μg/mL of anti-rat Fc IgG in 10 mM NaAc (pH 4.5) at a flow rate of 10 μL/min. The chip was inactivated with 1 M ethanolamine-hydrochloric acid (GE) for 420 seconds at a flow rate of 10 μL/min.
(§3) Candidate antibodies in running buffer 1×HBS-EP+ (10 mM HEPES, 150 mM NaCl, 3 mM EDTA, 0.05% Tween 20, pH 7.4) were captured onto Fc2 with anti-rat Fc IgG at a flow rate of 10 μL/min. The 10 nM human CEACAM5-his protein or CEACAM-6-his or CEACAM6 (AB)-his protein and running buffer were sequentially injected into Fc1-Fc2 at a flow rate of […], bound for 180 seconds, and then dissociated for 3600 seconds. 10 mM glycine (pH 1.5) was injected as regeneration buffer after each dissociation.
(§4) Result plots for the reference channel Fc1 and the buffer channel were subtracted from the test result plots. The experimental data fit the 1:1 binding model. The molecular weight of 110 KDa was used to calculate the molar concentration of CEACAM5 protein, 55 KDa for human CEACAM6-his, and 55 KDa for human CEACAM6 (AB)-his.

[4] = target: T2, human CEACAM5-his (ACRO CE5-H5226); assay: as above
Protocol: as §2, §3, §4

[5] = target: T3, human CEACAM6-his (ACRO CE6-H5223) (human, UniProt P40199 35-320); assay: as above
T3 construct: Bought protein; not shown: His tag
T3 sequence (looked up): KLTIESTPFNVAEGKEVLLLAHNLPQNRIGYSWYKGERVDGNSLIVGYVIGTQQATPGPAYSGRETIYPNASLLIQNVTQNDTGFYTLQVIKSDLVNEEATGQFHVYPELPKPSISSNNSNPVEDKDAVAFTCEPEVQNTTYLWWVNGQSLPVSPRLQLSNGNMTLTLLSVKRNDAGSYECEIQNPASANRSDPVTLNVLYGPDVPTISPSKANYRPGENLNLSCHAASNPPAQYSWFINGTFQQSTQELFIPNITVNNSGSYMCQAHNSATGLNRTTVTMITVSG
Protocol: as §2, §3, §4

mouse CEACAM5 = target: T4, mouse CEACAM5 (mouse, UniProt Q3UKK2 35-947, limits assumed); assay: ELISA on coated protein, OD450
T4 sequence (looked up): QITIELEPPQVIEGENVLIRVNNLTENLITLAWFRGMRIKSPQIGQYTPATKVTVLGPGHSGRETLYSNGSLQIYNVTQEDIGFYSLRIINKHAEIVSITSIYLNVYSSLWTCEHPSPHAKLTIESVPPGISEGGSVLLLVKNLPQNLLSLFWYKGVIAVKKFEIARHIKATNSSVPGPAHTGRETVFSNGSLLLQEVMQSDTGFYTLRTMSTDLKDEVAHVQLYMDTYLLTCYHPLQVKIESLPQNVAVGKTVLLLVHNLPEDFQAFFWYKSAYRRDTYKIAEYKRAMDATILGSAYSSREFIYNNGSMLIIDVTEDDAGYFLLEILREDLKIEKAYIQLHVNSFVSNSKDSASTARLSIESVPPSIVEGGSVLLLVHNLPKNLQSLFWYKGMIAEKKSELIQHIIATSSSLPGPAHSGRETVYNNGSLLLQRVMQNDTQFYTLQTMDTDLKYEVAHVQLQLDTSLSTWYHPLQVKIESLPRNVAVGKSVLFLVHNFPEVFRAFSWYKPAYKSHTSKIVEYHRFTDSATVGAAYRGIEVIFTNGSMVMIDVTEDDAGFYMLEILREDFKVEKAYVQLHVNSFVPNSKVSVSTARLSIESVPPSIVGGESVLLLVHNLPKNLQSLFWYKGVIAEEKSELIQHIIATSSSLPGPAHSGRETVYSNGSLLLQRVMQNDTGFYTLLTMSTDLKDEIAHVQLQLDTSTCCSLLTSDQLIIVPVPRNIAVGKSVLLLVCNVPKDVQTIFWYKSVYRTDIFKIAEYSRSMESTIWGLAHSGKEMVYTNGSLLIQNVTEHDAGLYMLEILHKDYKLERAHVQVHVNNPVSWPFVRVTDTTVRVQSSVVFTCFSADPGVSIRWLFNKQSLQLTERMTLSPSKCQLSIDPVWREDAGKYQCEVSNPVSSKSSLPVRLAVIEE
Protocol: The affinity of the antibodies to monkey CEACAM5, monkey CEACAM6, and mouse CEACAM5 proteins was determined by ELISA. The plates encapsulated with […] proteins were incubated at 4° C. overnight, and the antibodies to be detected were added to 96-well ELISA plates after being blocked with 2% PBS-BSA and incubated at 37° C. for 1 h. After washing 3 times with PBS containing 0.05% Tween, the absorbance value of each well was read at wavelength 450 nm with the antibody to be detected as the primary antibody and Goat anti-mouse IgG-FC-HRP as the secondary antibody, and the absorbance value of each well was read at wavelength 450 nm after the TMB color development. The specific binding to CEACAM5 and CEACAM6 of mouse and monkey was detected by Elisa method.

[6] = target: T5, CEACAM5 on the surface of the tumor cells (HPAFII cells) (UniProt P06731 35-685); assay: flow cytometry on HPAFII cells (Mean-FITC); the cells carry CEACAM5 and CEACAM6, signal not divided between the two
T5 construct: whole, on cells
T5 sequence (looked up): T2 sequence (looked up)
Protocol: (§5) The antibody to be tested was taken as the initial concentration of 200 nM and diluted 5-fold with 6 gradients. The HPAFII cells (From USTC […] FOR ADVANCED STUDIES) in the incubator were taken out, and the cell suspension was transferred to a 15 mL centrifuge tube, centrifuged, and counted by resuspension in PBS. A blank control group (Blank), a negative control group (NC), an experimental group, a positive control group and the irrelevant antibody group were kept. […] The cell suspension was spread in a 96-well plate according to about 3×10⁵ cells/well. Centrifugation (1000 rpm, 5 min) was performed, followed by washing with PBS, re-centrifugation, and repeated twice to remove media residues. The supernatant was discarded, 100 μL of primary antibody solution and irrelevant antibody solution were added to the experimental group and irrelevant antibody group, respectively, and the cells were resuspended and incubated at room temperature for 1 h. The blank group, and the negative control group were incubated with an equal amount of PBS.
(§6) After 1 h, PBS was added to wash twice. After the supernatant was discarded, 100 μL of fluorescent secondary antibody dilution (Mouse-derived secondary antibody from Abcam ab6785) was added to each sample group, except for the blank group which was added with 100 μL of PBS. After incubation at room temperature and protected from light for 0.5 h, centrifugation was performed and PBS added to wash the samples twice. After the supernatant was discarded, 120 μL of PBS was added to resuspend and sequentially flow cytometry was performed to detect the mean fluorescence intensity. The concentration of the antibody was logarithmically taken as the horizontal coordinate, and the Sigmoidaldose-response (VariableSlope) method (GraphPadPrism Software, GraphPadSoftware, San Diego, California) was chosen to perform a nonlinear regression to obtain the binding activity curves of the antibody on HPAFII cells.

[7] = target: T6, CEACAM6 on the surface of the tumor cells (HPAFII cells) (UniProt P40199 35-320); assay: as above
T6 construct: whole, on cells
T6 sequence (looked up): T3 sequence (looked up)
Protocol: as §5, §6

[8] = target: T2, human CEACAM5-his (ACRO CE5-H5226); assay: ELISA on coated human CEACAM5, OD450; remark: listed apart in the source
Protocol: as §1

[9] = target: T3, human CEACAM6-his (ACRO CE6-H5223); assay: ELISA on coated human CEACAM6, OD450
Protocol: as §1

T1 sequence (P40199 other isoform, or with tags, fused parts or gaps limits assumed): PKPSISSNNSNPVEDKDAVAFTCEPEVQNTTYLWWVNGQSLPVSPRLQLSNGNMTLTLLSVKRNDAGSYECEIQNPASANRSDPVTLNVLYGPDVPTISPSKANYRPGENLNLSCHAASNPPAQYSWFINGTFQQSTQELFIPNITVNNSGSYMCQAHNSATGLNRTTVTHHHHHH

B2: Antibody 8 (antibody, V domains shown)
VH: EVQLRQSGPELVRPGASMKISCKASGYSFTAYTMTWVKQSHGKILEWIGLIAPYHGGTVYNQKFKGKATLTVDKSSSTAYMELLSLTSEDSAIYYCAGGASSGFVTWFAYWGQGTLVTVSA
VL: DIQMTQSPASLSASVGETVTITCGASENIYGALNWYQRKQGKSPQVLIYGATNLADGTSSRFSGSGSGRQYSLKINSLHPDDVATYYCQNVLSTPYTFGGGTKLEIK
notes: Mouse-derived hybridoma antibody; also called mouse-derived antibody 8
EC50 (read off the curve) [6]: ~2 nM | EC50 (read off the curve) [7]: ~2 nM | EC50 (read off the curve) (Human-CEACAM6 (AB)-His [1]): ~0.02 µg/mL | EC50 (read off the curve) [8]: ~0.01 µg/mL

B4: Antibody 7 (antibody, V domains shown)
VH: QIQLVQSGPELKKPGETVKISCKASGYTFTDYGMNWVKQAPGKGLKWMGWINTYTGEPTYPDDFKGRFAFSLETSATTAYLQINNLKNEDTATYFCSRGDLLVRLDNWGQGTTLTVSS
VL: DIQMTQSPSSLSASLGGKVTITCKASQDINKYISWYQHKPGKGPRLLIHYTSTLQSGIPSRFSGSGSGRDYSFSISNLEPEDIATYYCLQYDYLRTFGGGTKLEIK
notes: Mouse-derived hybridoma antibody; also called mouse-derived antibody 7
EC50 (read off the curve) [6]: ~2 nM | EC50 (read off the curve) [7]: ~2 nM | EC50 (read off the curve) (Human-CEACAM6 (AB)-His [1]): ~0.01 µg/mL

Second part, the binder after the results:

EC50 (read off the curve) (Human-CEACAM6 (AB)-His [1]): ~0.02 µg/mL | EC50 (read off the curve) [2]: ~0.03 µg/mL | Kd (Human-CEACAM6 (AB)-His [3]): 4.51 nM | Kd [4]: 1.36 nM | Kd [5]: 37.4 nM | OD (mouse CEACAM5): 0.15 OD
B1: Antibody 13 (antibody, V domains shown)
VH: EVKLVESGGGLVQPGGSLSLSCTASGFTLTDYYMSWVRQPPGRALEWLALIRNKVNGYTIEYSASVKGRFTISRDNSQSILYLQMNALRAEDSATYYCARDIGIRWYFDVWGAGTTVTVSS
VL: QIVLSQSPAILSASPGEKVTMTCRASSSVSYMHWYQQKPGSSPKPWIYATSNLASGVPARFSGSGSGTSYSLTISRMEAEDAATYYCQQWSGNPPTFGGGTKLEIK
notes: Mouse-derived hybridoma antibody; also called mouse-derived antibody 13

binding result [9]: binds | binding result [2]: binds
B3: Antibody 14 (antibody, V domains shown)
VH: EVQLVETGGGLVQPKGSLKLSCAASGFSFNTNAMNWVRQAPGKGLEWVARIRSKSNNYATYYADSVKDRFTISRDDSQSMLYLQMNNLKTEDTAMYYCVSFLSLMDYWGQGTSVTVSS
VL: QIVLTQSPAIMSASPGEKVTMTCSASSSISYMHWYQQKPGTSPKRWIYDTSKLASGVPARFSGSGSGTSYSLTISSMEAEDAATYYCHQRSSYPWTFGGGTKLEIK
notes: Mouse-derived hybridoma antibody; also called mouse-derived antibody 14
